Data on 1 substance can be found in paper PMC6624373.

This experiment addresses lamin A R7/8E double mutant (human) (UniProt P02545). Nature of the experiment: rotary metal shadowing EM; in vitro assembly assay: after dialysis into 25 mM MES, 150 mM NaCl, 1 mM DTT, 1 mM EGTA pH 6.5, 30% glycerol; dimers scored as singular or incorporated into head-to-tail oligomers.

As for “lamin A R7/8E double mutant (from UniProt P02545 1-646) (natural protein)”, the stoichiometry N amounted to 2.
